The values below come from paper PMC4971492, “Structural basis for misregulation of kinesin KIF21A autoinhibition by CFEOM1 disease mutations” (Scientific Reports, 2016).

This series deals with the molecule itself. The series is described as follows: cross-linking; cysteine (disulfide) cross-linking in COS-7 lysates, 1 h room temperature, SDS-PAGE under reducing and non-reducing conditions, anti-GFP Western blot.

B1: GFP-labelled CLIP-115 (natural protein)
chain: not shown
notes: CLIP-115 (CAP-Gly domain-containing linker protein 2); Species surmised as rat; source: COS-7, transfected, in lysate; not shown: GFP (monomeric), N-terminal, kept
For the protein B1, the stoichiometry N (commonly the number of molecules, sites or subunits per partner or assembly) is 2.
